Paper PMC9584410, “Structure of Klebsiella pneumoniae adenosine monophosphate nucleosidase” (PLoS ONE, 2022)

What was measured:
[1] = molecular target: Klebsiella pneumoniae adenosine monophosphate nucleosidase (Klebsiella pneumoniae); test: cryo-EM structure; purified KpAmn vitrified on a C-flat grid (Vitrobot, 4°C, >90% humidity), Titan Krios 300 kV; apo; D3 symmetry confirmed by ab initio models and enforced in refinement
[2] = substrate: Nc1ncnc2c1ncn2[C@@H]1O[C@H](COP(=O)(O)O)[C@@H](O)[C@H]1O; test: purified protein; type: biochemical, Klebsiella pneumoniae; details: 25 °C, 20 mM HEPES pH 7.5, 100 mM NaCl, 1 mM MnCl2, no ATP activator listed

Row | Molecule | stoichiometry N [1] | Km [2] [µM]
1 | Klebsiella pneumoniae adenosine monophosphate nucleosidase (enzyme) | 6 | –
2 | KpAmn (K. pneumoniae adenosine monophosphate nucleosidase) (Klebsiella pneumoniae) (protein, expressed in E. coli BL21(DE3) R3 Rosetta; homohexamer, D3 symmetry; active site from two chains) MNIKAASLTPEQALAELEARYEASVTALRKAIGDYIDHNTLPDTEARAEGLFVYPQLSVSWDGADHKALKTRAWGRFTHAGCYTTTITNPKLFRNYLLEQLTLLYQDYGAHISVELSQHEIPYPYVIDGSTLTLDRSMSAGLTRYFPTTELSQIGDETADGLFHPTEFYPLSHFDARRVDFSLARLRHYTGTPAEHFQPYVLFTNYTRYVDEFVSWGCSQILDPDSPYIALSCAGGIWITAETEAPEQAISDLAWKKHQMPAWHLITHDGKGITLINIGVGPANAKTICDHLAVLRPDVWLMIGHCGGLRESQAIGDYVLAHAYLRDDHVLDAVLPPDIPIPSIAEVQRALYDATKQVSGMPGEEVKQRLRTGTVVTTDDRNWELRYSASALRFNLSRAVAIDMESATIAAQGYRFRVPYGTLLCVSDKPLHGEIKLPGQANRFYEGAISEHLQIGIRAIDLLRAEGDHMHSRKLRTFNEPPFR | – | 390
